Measurements taken from paper PMC2034099, “Preparation and preclinical evaluation of humanised A33 immunoconjugates for radioimmunotherapy” (British Journal of Cancer, 1995).

Biological target: T1, A33 antigen (Homo sapiens, endogenous on SW1222 and …, UniProt Q99795)
T1 construct: A33 antigen on human colorectal tumour cell lines; also called the antigen recognised by A33; source: endogenous, on SW1222 and Colo205 human colorectal tumour cells
Assay: flow cytometry on cells; Scatchard analysis: FITC-labelled antibodies titrated on 2.8 x 10^5 SW1222 cells, 2 h on ice, 350 ul PBS with 5% FCS and 0.1% sodium azide; fluorescence per cell calibrated with standard beads; linear regression
Details: one partner purified

T1 sequence (Q99795 22-319): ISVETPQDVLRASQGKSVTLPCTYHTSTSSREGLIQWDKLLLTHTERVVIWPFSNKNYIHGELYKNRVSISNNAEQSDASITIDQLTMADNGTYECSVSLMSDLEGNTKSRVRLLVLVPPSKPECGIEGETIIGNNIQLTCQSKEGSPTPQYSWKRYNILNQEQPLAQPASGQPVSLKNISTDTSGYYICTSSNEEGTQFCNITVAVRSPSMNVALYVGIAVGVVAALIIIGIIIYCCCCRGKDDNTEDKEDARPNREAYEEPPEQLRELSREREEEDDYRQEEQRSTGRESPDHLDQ

B1: murine A33 IgG (antibody, V domains shown)
VH: EVKLVESGGGLVKPGGSLKLSCAASGFAFSTYDMSWVRQTPEKRLEWVATISSGGSYTYYLDSVKGRFTISRDSARNTLYLQMSSLRSEDTALYYCAPTTVVPFAYWGQGTLVTVSA
VL: DIVMTQSQKFMSTSVGDRVSITCKASQNVRTVVAWYQQKPGQSPKTLIYLASNRHTGVPDRFTGSGSGTDFTLTISNVQSEDLADYFCLQHWSYPLTFGSGTKLEVK
notes: the scan text reads CAPr at Kabat 92-96, restored to CAPTT from the hA33 line (94-102 are said to be murine); mouse gamma-2a heavy chain constant region ('the murine y-2a of the parent antibody'); mouse light chain constant region; IgG2a; also called mA33; mouse A33; copies: 2 + 2
Kd: 1.28 nM
